The text below walks through data of FireProtDB (doi:10.1016/j.jmb.2009.04.068).

Values joined by “and” are separate entries in the source; they are usually repeats but may differ in a detail not shown here. Equal values may be shown once.

Sequences and labels used below:
B1: Neurotensin receptor type 1, P20789 (parent)
chain: MHLNSSVPQGTPGEPDAQPFSGPQSEMEATFLALSLSNGSGNTSESDTAGPNSDLDVNTDIYSKVLVTAIYLALFVVGTVGNSVTAFTLARKKSLQSLQSTVHYHLGSLALSDLLILLLAMPVELYNFIWVHHPWAFGDAGCRGYYFLRDACTYATALNVASLSVERYLAICHPFKAKTLMSRSRTKKFISAIWLASALLAIPMLFTMGLQNRSGDGTHPGGLVCTPIVDTATVKVVIQVNTFMSFLFPMLVISILNTVIANKLTVMVHQAAEQGRVCTVGTHNGLEHSTFNMTIEPGRVQALRHGVLVLRAVVIAFVVCWLPYHVRRLMFCYISDEQWTTFLFDFYHYFYMLTNALFYVSSAINPILYNLVSANFRQVFLSTLACLCPGWRHRRKKRPTFSRKPNSMSSNHAFSTSATRETLY

The variants in the first series derive from B1. Conditions: Rattus norvegicus; pH 7.4; Heat treatment; Activity; Tris-HCl 50 mM; structure 4BUO; whole UniProt chain shown.
For F358A H103A I260A F342A, the Tm stood at 50 °C. As to A86L F358A, the Tm worked out at 48 °C. Take F358A A86L H103A I260A: the Tm worked out at 49 °C.

F358A A86L H103A: the Tm was 48 °C.

On to F358A A86L I260A, for which the Tm is 49 °C. For the variant F358A A86L H103A F342A, the Tm was determined as 50 °C. For the variant A86L, the Tm was 37 °C and 39 °C. On to F358A A86L H103A I260A F342A, for which the Tm was found to be 50 °C. On to F358A, for which the “change of melting temperature, mutant - wild type (higher = more stable)” value (“change of melting temperature, mutant” for short) was 7 °C.

With H103A, the Tm is 34 °C and 36 °C. As to A86L I260A F342A F358A, the Tm was determined as 50 °C. Consider A86L I260A F342A, for which the Tm was found to be 47 °C.

Staying with this series, now noted: Rattus norvegicus; pH 7.4; Thermal; Activity; Tris-HCl 50 mM; structure 4BUO; whole UniProt chain shown.
For the variant A86L F358A, the “change of melting temperature, mutant” value is 11 °C and 10 °C. On to A86L, for which the Tm was found to be 33 °C and the “change of melting temperature, mutant” value worked out at 8 °C. As for F358A, the “change of melting temperature, mutant” value was 3 °C and 8 °C.
